Patent US20130209454A1 (CALIFORNIA INSTITUTE OF TECHNOLOGY, published 2013)
Where two headings read alike, the source gives them in different places.

Tests used:
Assay in all cases: cell-based or functional assay
[1] = target: HIV-1 Env of strain AC10.0.29 (HIV-1)
[2] = target: HIV-1 Env of strain T257-31 (HIV-1)
[3] = target: HIV-1 Env of strain ZM214M.PL15 (HIV-1)
[4] = target: HIV-1 Env of strain SC422661.8 (HIV-1)
[5] = target: HIV-1 Env of strain CAP45.2.00.G3 (HIV-1)
[6] = target: HIV-1 Env of strain QH0692.42 (HIV-1)
[7] = target: HIV-1 Env of strain TRO.11 (HIV-1)
[8] = target: HIV-1 Env of strain AC10.0.29 (HIV-1); remark: listed apart in the source
[9] = target: HIV-1 Env of strain SC422661.8 (HIV-1); remark: listed apart in the source
[10] = target: HIV-1 Env of strain CAP45.2.00.G3 (HIV-1); remark: listed apart in the source
[11] = target: HIV-1 Env of strain Du172.17 (HIV-1)
[12] = target: HIV-1 Env of strain CAP210.2.00.E8 (HIV-1)
[13] = target: HIV-1 Env of strain TRO.11 (HIV-1); remark: listed apart in the source
[14] = target: HIV-1 Env of strain Du156.12 (HIV-1)
[15] = target: HIV-1 Env of strain ZM197M.PB7 (HIV-1)
[16] = target: HIV-1 Env of strain ZM214M.PL15 (HIV-1); remark: listed apart in the source
[17] = target: HIV-1 Env of strain ZM249M.PL1 (HIV-1)
[18] = target: HIV-1 Env of strain ZM53M.PB12 (HIV-1)
[19] = target: HIV-1 Env of strain ZM109F.PB4 (HIV-1)
[20] = target: HIV-1 Env of strain ZM135M.PL10a (HIV-1)
[21] = target: HIV-1 strain Q769.d22 envelope (gp120) (HIV-1)
[22] = target: HIV-1 strain 1006_11_C3_1601 envelope (gp120) (HIV-1)
[23] = target: HIV-1 strain 3301.v1.c24 envelope (gp120) (HIV-1)
[24] = target: HIV-1 strain CNE53 envelope (gp120) (HIV-1)
[25] = target: HIV-1 strain X1254_c3 envelope (gp120) (HIV-1)
[26] = target: HIV-1 strain 3103.v3.c10 envelope (gp120) (HIV-1)
[27] = target: HIV-1 strain 6545.v4.c1 envelope (gp120) (HIV-1)
[28] = target: HIV-1 strain Ce0682_E4 envelope (gp120) (HIV-1)
[29] = target: HIV-1 strain ZM135M.PL10a envelope (gp120) (HIV-1)
[30] = target: HIV-1 strain Q842.d12 envelope (gp120) (HIV-1)
[31] = target: HIV-1 strain CNE21 envelope (gp120) (HIV-1)
[32] = target: HIV-1 strain 3718.v3.c11 envelope (gp120) (HIV-1)
[33] = target: HIV-1 strain 1054_07_TC4_1499 envelope (gp120) (HIV-1)
[34] = target: HIV-1 strain C1080.c03 envelope (gp120) (HIV-1)
[35] = target: HIV-1 strain Ce2060_G9 envelope (gp120) (HIV-1)
[36] = target: HIV-1 strain C2101.c01 envelope (gp120) (HIV-1)
[37] = target: HIV-1 strain 3415.v1.c1 envelope (gp120) (HIV-1)
[38] = target: HIV-1 strain HIV-16845-2.22 envelope (gp120) (HIV-1)
[39] = target: HIV-1 strain Ce0393_C3 envelope (gp120) (HIV-1)
[40] = target: HIV-1 strain T255-34 envelope (gp120) (HIV-1)
[41] = target: HIV-1 strain Ce1176_A3 envelope (gp120) (HIV-1)
[42] = target: HIV-1 strain T278-50 envelope (gp120) (HIV-1)

B1: NIH45-46 IgG (antibody, V domains shown)
VH: QVRLSQSGGQMKKPGESMRLSCRASGYEFLNCPINWIRLAPGRRPEWMGWLKPRGGAVNYARKFQGRVTMTRDVYSDTAFLELRSLTSDDTAVYFCTRGKYCTARDYYNWDFEHWGRGAPVTVSS
VL: EIVLTQSPATLSLSPGETAIISCRTSQSGSLAWYQQRPGQAPRLVIYSGSTRAAGIPDRFSGSRWGADYNLSISNLESGDFGVYYCQQYEFFGQGTKVQVDI
[1]
  neutralization IC50: 0.9 µg/mL
[2]
  neutralization IC50: 0.5 µg/mL
[3]
  neutralization IC50: 0.3 µg/mL
[4]
  neutralization IC50: 0.05 µg/mL
[5]
  neutralization IC50: > 50 µg/mL
[6]
  neutralization IC50: 0.7 µg/mL
[7]
  neutralization IC50: 1.9 µg/mL
[8]
  neutralization IC50: 0.9 µg/mL
[9]
  neutralization IC50: 0.06 µg/mL
[10]
  neutralization IC50: > 50 µg/mL
[11]
  neutralization IC50: > 50 µg/mL
[12]
  neutralization IC50: > 50 µg/mL
[13]
  neutralization IC50: 1 µg/mL
[14]
  neutralization IC50: 0.01 µg/mL
[15]
  neutralization IC50: 0.14 µg/mL
[16]
  neutralization IC50: 0.05 µg/mL
[17]
  neutralization IC50: 0.02 µg/mL
[18]
  neutralization IC50: 0.65 µg/mL
[19]
  neutralization IC50: 0.22 µg/mL
[20]
  neutralization IC50: 0.36 µg/mL

B2: NIH45-46 IgG (antibody, V domains shown)
VH: QVRLSQSGGQMKKPGESMRLSCRASGYEFLNCPINWIRLAPGRRPEWMGWLKPRGGAVNYARKFQGRVTMTRDVYSDTAFLELRSLTSDDTAVYFCTRGKYCTARDYYNWDFEHWGRGAPVTVSS
VL: EIVLTQSPATLSLSPGETAIISCRTSQSGSLAWYQQRPGQAPRLVIYSGSTRAAGIPDRFSGSRWGADYNLSISNLESGDFGVYYCQQYEFFGQGTKVQVDI
[21]
  neutralization IC80: 0.033 µg/mL
[22]
  neutralization IC80: 0.196 µg/mL
[23]
  neutralization IC80: 0.033 µg/mL
[24]
  neutralization IC80: 0.039 µg/mL
[25]
  neutralization IC80: 0.107 µg/mL
[26]
  neutralization IC80: 6.15 µg/mL
[27]
  neutralization IC80: > 50 µg/mL
[28]
  neutralization IC80: 0.155 µg/mL
[29]
  neutralization IC80: 2.79 µg/mL
[30]
  neutralization IC80: 0.073 µg/mL
[31]
  neutralization IC80: 38.1 µg/mL
[32]
  neutralization IC80: > 50 µg/mL
[33]
  neutralization IC80: 0.404 µg/mL
[34]
  neutralization IC80: 11.6 µg/mL
[35]
  neutralization IC80: 0.29 µg/mL
[36]
  neutralization IC80: 31.4 µg/mL
[37]
  neutralization IC80: 0.086 µg/mL
[38]
  neutralization IC80: 22.6 µg/mL
[39]
  neutralization IC80: 0.93 µg/mL
[40]
  neutralization IC80: 3.44 µg/mL
[41]
  neutralization IC80: 3.17 µg/mL
[42]
  neutralization IC80: > 50 µg/mL
